The text below walks through data of article PMC10113190 (2023).

For the assay, the target named is Biotinylated CyRPA (residues 29 to 362) with a C-terminal Avitag (P. falciparum, UniProt Q8IFM8 29-362, biotin (on the Avitag)). The assay can be described thus: BLI. Background: In BLI a coated tip is dipped into the sample, and binding shifts an interference pattern.

B1: Rh5_(unproc), full-length PfRh5 (residues 26 to 526) (natural protein)
chain: ENAIKKTKNQENNLTLLPIKSTEEEKDDIKNGKDIKKEIDNDKENIKTNNAKDHSTYIKSYLNTNVNDGLKYLFIPSHNSFIKKYSVFNQINDGMLLNEKNDVKNNEDYKNVDYKNVNFLQYHFKELSNYNIANSIDILQEKEGHLDFVIIPHYTFLDYYKHLSYNSIYHKSSTYGKCIAVDAFIKKINEAYDKVKSKCNDIKNDLIATIKKLEHPYDINNKNDDSYRYDISEEIDDKSEETDDETEEVEDSIQDTDSNHAPSNKKKNDLMNRAFKKMMDEYNTKKKKLIKCIKNHENDFNKICMDMKNYGTNLFEQLSCYNNNFCNTNGIRYHYDEYIHKLILSVKSKNLNKDLSDMTNILQQSELLLTNLNKKMGSYIYIDTIKFIHKEMKHIFNRIEYHTKIINDKTKIIQDKIKLNIWRTFQKDELLKRILDMSNEYSLFITSDHLRQMLYNTFYSKEKHLNNIFHHLIYVLQMKFNDVPIKMEYFQTYKKNKPLTQ
One may read the Kd as the concentration at which binding is half-saturated. Read a high Kd as weaker binding. In turn, B1 displayed a Kd of 127 nM.

B2: Rh5_(proc), processed form of PfRh5 lacking the N-terminal domain (residues 145-526) (domain or fragment)
chain: LQYHFKELSNYNIANSIDILQEKEGHLDFVIIPHYTFLDYYKHLSYNSIYHKSSTYGKCIAVDAFIKKINEAYDKVKSKCNDIKNDLIATIKKLEHPYDINNKNDDSYRYDISEEIDDKSEETDDETEEVEDSIQDTDSNHAPSNKKKNDLMNRAFKKMMDEYNTKKKKLIKCIKNHENDFNKICMDMKNYGTNLFEQLSCYNNNFCNTNGIRYHYDEYIHKLILSVKSKNLNKDLSDMTNILQQSELLLTNLNKKMGSYIYIDTIKFIHKEMKHIFNRIEYHTKIINDKTKIIQDKIKLNIWRTFQKDELLKRILDMSNEYSLFITSDHLRQMLYNTFYSKEKHLNNIFHHLIYVLQMKFNDVPIKMEYFQTYKKNKPLTQ
The molecule B2 showed a Kd of 179 nM.
